One assay has as its target T1, GST-SHARPIN (Homo sapiens, UniProt Q9H0F6).
T1 sequence (Q9H0F6 1-387): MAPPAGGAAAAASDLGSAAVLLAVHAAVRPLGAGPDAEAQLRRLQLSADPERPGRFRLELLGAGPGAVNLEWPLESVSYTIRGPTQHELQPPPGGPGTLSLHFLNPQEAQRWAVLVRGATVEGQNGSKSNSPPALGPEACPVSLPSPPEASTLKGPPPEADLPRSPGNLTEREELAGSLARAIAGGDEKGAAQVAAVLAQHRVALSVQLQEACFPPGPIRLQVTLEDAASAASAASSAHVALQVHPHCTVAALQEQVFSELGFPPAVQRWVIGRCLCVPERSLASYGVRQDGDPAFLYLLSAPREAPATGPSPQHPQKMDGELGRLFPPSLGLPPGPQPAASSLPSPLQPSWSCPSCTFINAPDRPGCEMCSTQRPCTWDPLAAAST
Format: binding. Conditions: 2.5 μM biotinylated peptide on streptavidin-sepharose beads; Western blot. (In general: A western blot detects proteins with antibodies after separation by electrophoresis.)

For assay [1], the target named is EDANS-labelled wild-type α2-peptide (α2-wt). Put plainly: fluorescence polarisation. On the technique in general: In fluorescence polarisation assays a small probe gives low polarisation when free and higher when bound to something large.

Results on two molecules are retold here after paper PMC3257806 (Nature Cell Biology, 2011).

On to “β1-tail: peptide of the cytoplasmic domain of β1-integrin, biotinylated or unlabelled”, for which the “interaction of recombinant GST-SHARPIN with biotinylated peptide (pull-down)” value with GST-SHARPIN is on record as “did not interact”.

B1: recombinant GST-SHARPIN (natural protein)
chain: T1 sequence (Q9H0F6 1-387)
Turning to B1, the Kd – broadly, the equilibrium constant for the complex coming apart – in assay [1] is 26 µM.
